Reference: the supplement of paper PMC7877785
± gives the uncertainty stated by the source.

Assay: self-splicing fitness, log relative to wild type (ln ratio); higher = more splicing; Tetrahymena group I intron in knt gene, E. coli kanamycin selection, DiMSum; sequences stand for … in CUCUCU…GGAGGGAAAAGUUAUCAGGCAUGCACCUGGUAGCUAGUCUUUAAACCAAUAGAUUGCAUCGGUUUAAAAGGCAAGACCGUCAAAUUGCGGGAAAGGGGUCAACAGCCGUUCAGUACCAAGUCUCAGGGGAAACUUUGAGAUGGCCUUGCAAAGGGUAUGGUAAUAAGCUGACGGACAUGGUCCUAACCACGCAGCCAAGUCCUAAGUCAACAGAUCUUCUGUUGAUAUGGAUGCAGUUCACAGACUAAAUGUCGGUCGGGGAAGAUGUAUUCUUCUCAUAAGAUAUAGUCGGACCUCUCCUUAAUGGGAGCUAGCGGAUGAAGUGAUGCAACACUGGAGCCGCUGGGAACUAAUUUGUAUGCGAAAGUAUAUUGAUUAGUUUUGGAGUACUCGUGGUCG
Procedure, shortened: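 A randomised library covering all eight P1ex-region intron nucleotides was built with the intron in the knt kanamycin-resistance gene on pET-22b(+) and held in E. coli BL21(DE3). Cells were grown overnight at 37°C or 30°C on LB agar, with or without 25 μg/mL kanamycin, plus 100 μg/mL carbenicillin, 50 μM IPTG and 0.2% rhamnose, and pooled colonies were amplicon-sequenced on an Illumina HiSeq 2500. DiMSum fitness is the error-weighted combination of wild-type-normalised replicate fold changes, kanamycin versus none.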

Sequence	self-splicing fitness (ln) (30 °C)	self-splicing fitness (ln) (37 °C)
CAAUAGCAAUAUUACGCAUU	-4.62 ± 0.24	-2.71 ± 0.17
CAAUAGCAAUAUUACGCGAC	-2.2 ± 0.17	-2.54 ± 0.38
CAAUAGCAAUAUUACGCUCC		-0.581 ± 0.39
CAAUAGCAAUAUUACGCUUC	-4.65 ± 0.36	-2.95 ± 0.35
CAAUAGCAAUAUUACGGAUG	-1.51 ± 0.08	-1.12 ± 0.088
CAAUAGCAAUAUUACGGCAU	-3.03 ± 0.17	-1.32 ± 0.26
CAAUAGCAAUAUUACGGCGA	-3.93 ± 0.4	-2.03 ± 0.24
CAAUAGCAAUAUUACGGGAC	-2.83 ± 0.34	-2.63 ± 0.27
CAAUAGCAAUAUUACGGGUA	-3.9 ± 0.21	-3.12 ± 0.18
CAAUAGCAAUAUUACGGUCG	-0.0402 ± 0.066	0.0285 ± 0.087
CAAUAGCAAUAUUACGGUCU	-3.24 ± 0.31	-3.15 ± 0.35
CAAUAGCAAUAUUACGGUGU	-3.14 ± 0.16	-2.27 ± 0.18
CAAUAGCAAUAUUACGUAGA	-3.48 ± 0.16	-2.37 ± 0.17
CAAUAGCAAUAUUACGUAGU	-3.31 ± 0.29	-2.44 ± 0.22
CAAUAGCAAUAUUACGUGAA	-4.02 ± 0.37	-1.7 ± 0.22
CAAUAGCAAUAUUACGUGCU		-2.65 ± 0.24
CAAUAGCAAUAUUACGUUAC		-3.23 ± 0.39
CAAUAGCAAUAUUACGUUGG	-1.9 ± 0.099	-1.3 ± 0.11
CACAAGCAAUAUUACGAAGG	-1.45 ± 0.096	-0.993 ± 0.12
CACAAGCAAUAUUACGAAUG	-1.79 ± 0.074	-1.2 ± 0.073
CACAAGCAAUAUUACGACCU	-1.71 ± 0.19	-2.1 ± 0.2
CACAAGCAAUAUUACGCCCA	-0.966 ± 0.091	0.114 ± 0.09
CACAAGCAAUAUUACGCGUA	-1.64 ± 0.072	-0.625 ± 0.067
CACAAGCAAUAUUACGGAAG	-0.736 ± 0.055	-0.887 ± 0.072
CACAAGCAAUAUUACGGGCA	-3.05 ± 0.14	-1.39 ± 0.099

Sequence	self-splicing fitness (ln) (30 °C)	self-splicing fitness (ln) (37 °C)
CACAAGCAAUAUUACGGUCC	-2.99 ± 0.32	-1.99 ± 0.27
CACAAGCAAUAUUACGUAAC	-2.43 ± 0.095	-0.662 ± 0.14
CACAAGCAAUAUUACGUACC	-3.9 ± 0.21	-1.36 ± 0.14
CACAAGCAAUAUUACGUCGG	-0.785 ± 0.05	-0.422 ± 0.063
CACAAGCAAUAUUACGUUCU	-2.84 ± 0.12	-2.42 ± 0.12
CACAAGCAAUAUUACGUUGU	-3.81 ± 0.16	-2.39 ± 0.13
CACCAGCAAUAUUACGAAAG	-0.231 ± 0.041	-0.141 ± 0.064
CACCAGCAAUAUUACGAAAU	-4.11 ± 0.18	-2.29 ± 0.16
CACCAGCAAUAUUACGAACU	-3.98 ± 0.2	-2.05 ± 0.17
CACCAGCAAUAUUACGAGCA	-3.54 ± 0.16	-1.55 ± 0.13
CACCAGCAAUAUUACGAUCA	-2.75 ± 0.15	-1.43 ± 0.16
CACCAGCAAUAUUACGAUCG	-0.326 ± 0.059	0.608 ± 0.085
CACCAGCAAUAUUACGCAUA	-2.57 ± 0.12	-1.27 ± 0.1
CACCAGCAAUAUUACGCCAU	-3.39 ± 0.31	-2.03 ± 0.29
CACCAGCAAUAUUACGCCGC	-3.35 ± 0.2	-2.43 ± 0.29
CACCAGCAAUAUUACGCUCC	-3.91 ± 0.21	-2.11 ± 0.33
CACCAGCAAUAUUACGGCCG	0.194 ± 0.066	0.251 ± 0.087
CACCAGCAAUAUUACGGGGA	-1.7 ± 0.062	-0.764 ± 0.067
CACCAGCAAUAUUACGGGUU	-1.82 ± 0.056	-1.68 ± 0.081
CACCAGCAAUAUUACGGUAA	-1.18 ± 0.056	-0.566 ± 0.061
CACCAGCAAUAUUACGGUAU	-2.42 ± 0.072	-1.03 ± 0.067
CACCAGCAAUAUUACGGUUG	-2.85 ± 0.094	-1.04 ± 0.11
CACCAGCAAUAUUACGUACG	0.0448 ± 0.04	0.848 ± 0.062
CACCAGCAAUAUUACGUCAU	-4.12 ± 0.17	-2.27 ± 0.14
CACCAGCAAUAUUACGUCCU	-3.31 ± 0.13	-1.87 ± 0.14

Sequence	self-splicing fitness (ln) (30 °C)	self-splicing fitness (ln) (37 °C)
CACCAGCAAUAUUACGUUGC	-3.93 ± 0.17	-3.5 ± 0.24
CACGAGCAAUAUUACGAACA		-2.04 ± 0.47
CACGAGCAAUAUUACGAAUA	-2.08 ± 0.12	-2.23 ± 0.16
CACGAGCAAUAUUACGACUU	-4.4 ± 0.34	-0.766 ± 0.13
CACGAGCAAUAUUACGAGUU	-4.28 ± 0.18	-2.2 ± 0.12
CACGAGCAAUAUUACGAUGG	-1.81 ± 0.096	-1.45 ± 0.14
CACGAGCAAUAUUACGCAGA		-2.28 ± 0.26
CACGAGCAAUAUUACGCCGG	-3.41 ± 0.22	-2.6 ± 0.3
CACGAGCAAUAUUACGCCUA		-2.24 ± 0.45
CACGAGCAAUAUUACGCGCA	-3.24 ± 0.18	-2.52 ± 0.14
CACGAGCAAUAUUACGGAUA	-2.98 ± 0.27	-2.06 ± 0.24
CACGAGCAAUAUUACGGCAG	-1.03 ± 0.11	-0.837 ± 0.14
CACGAGCAAUAUUACGGCCA		-2.79 ± 0.32
CACGAGCAAUAUUACGGCGU	-2.68 ± 0.21	-2.53 ± 0.26
CACGAGCAAUAUUACGGCUA	-2.19 ± 0.22	-1.41 ± 0.17
CACGAGCAAUAUUACGGGAG	-3.53 ± 0.21	-2.37 ± 0.18
CACGAGCAAUAUUACGGGGA	-3.15 ± 0.12	-2.51 ± 0.13
CACGAGCAAUAUUACGGUAU	-3.04 ± 0.23	-2.25 ± 0.22
CACGAGCAAUAUUACGGUCC	-4.36 ± 0.28	-3.16 ± 0.33
CACGAGCAAUAUUACGGUGU	-3.93 ± 0.22	-2.33 ± 0.21
CACGAGCAAUAUUACGGUUA	-2.76 ± 0.17	-2.48 ± 0.16
CACGAGCAAUAUUACGUCCC	-1.45 ± 0.25	
CACGAGCAAUAUUACGUCGC	-2.82 ± 0.33	-2.69 ± 0.41
CACGAGCAAUAUUACGUGCU	-2.25 ± 0.12	-2.99 ± 0.22
CACGAGCAAUAUUACGUGUU	-2.98 ± 0.1	-2.26 ± 0.15

Sequence	self-splicing fitness (ln) (30 °C)	self-splicing fitness (ln) (37 °C)
CACGAGCAAUAUUACGUUGA	-3.06 ± 0.17	-2.47 ± 0.18
CACGAGCAAUAUUACGUUUA	-2.88 ± 0.18	-2.52 ± 0.19
CACGAGCAAUAUUACGUUUC	-3.42 ± 0.17	-2.42 ± 0.22
CACGAGCAAUAUUACGUUUU	-3.49 ± 0.15	-2.94 ± 0.18
CACUAGCAAUAUUACGAACU	-2.65 ± 0.1	-1.99 ± 0.15
CACUAGCAAUAUUACGACUA	-2.82 ± 0.23	-1.43 ± 0.2
CACUAGCAAUAUUACGAGUG	-3.45 ± 0.2	-2.73 ± 0.22
CACUAGCAAUAUUACGAUUC	-3.02 ± 0.23	-1.14 ± 0.26
CACUAGCAAUAUUACGCAUG	-1.95 ± 0.13	-1.75 ± 0.21
CACUAGCAAUAUUACGCUCG	-0.657 ± 0.073	0.214 ± 0.089
CACUAGCAAUAUUACGGAAG	-0.706 ± 0.088	-0.266 ± 0.097
CACUAGCAAUAUUACGGAUA	-2.41 ± 0.28	-2.22 ± 0.28
CACUAGCAAUAUUACGGCAC	-2.4 ± 0.11	-1.53 ± 0.18
CACUAGCAAUAUUACGGGGG	-2.43 ± 0.18	-1.5 ± 0.17
CACUAGCAAUAUUACGGGGU	-3.32 ± 0.19	-2.37 ± 0.2
CACUAGCAAUAUUACGUGCA	-2.44 ± 0.17	-1.99 ± 0.23
CACUAGCAAUAUUACGUGCG	-2.13 ± 0.081	-0.945 ± 0.082
CACUAGCAAUAUUACGUUCU	-3.24 ± 0.17	-1.39 ± 0.14
CAGAAGCAAUAUUACGACCA	-0.857 ± 0.24	
CAGAAGCAAUAUUACGACGA	-1.52 ± 0.18	-0.939 ± 0.17
CAGAAGCAAUAUUACGAGAA		-2.3 ± 0.35
CAGAAGCAAUAUUACGAGAC	-1.15 ± 0.3	-1.38 ± 0.28
CAGAAGCAAUAUUACGAGCG	-0.175 ± 0.068	0.538 ± 0.086
